Experimental data reported in publication PMC3777995, “The Inhibitory Helix Controls the Intramolecular Conformational Switching of the C-Terminus of STIM1” (PLoS ONE, 2013).
Values joined by “and” are separate entries in the source; they are usually repeats but may differ in a detail not shown here. Equal entries are not always repeated.

How the values were obtained:
[1] = molecular target: the molecule itself; experiment: SEC; HiLoad 26/60 Superdex 200 and Superdex 200 columns calibrated with protein standards; 20 mM Tris-HCl pH 8.0, 200 mM NaCl, 1 mM EDTA
[2] = molecular target: the molecule itself; experiment: AUC; sedimentation velocity, 42,000 rpm, 4°C, interference detection; approximately 6 mg/ml CC1-IH, 1.57 mg/ml CC1, 1.2 mg/ml MBP-IH; 20 mM Tris-HCl pH 8.0, 200 mM NaCl, 1 mM EDTA; self-associating multimerization model

Protein | stoichiometry N [1] | stoichiometry N [2]
ERSRQKYAEEELEQVREALRKAEKELESHSS (peptide, UniProt Q13586 310-340, looked up, limits 310-340 are printed for the MBP-tagged IH from which this fragment was cut; Theoretical mass 3.7 kDa; also called IH-only protein; source: E. coli, obtained by PreScission digestion of purified MBP-IH, purified (Superdex 200)) [IH-only fragment of STIM1] | 2 | –
ERSRQKYAEEELEQVREALRKAEKELESHSS (domain or fragment, human, UniProt Q13586 310-340, looked up, made by loop-out of the CC1 fragment from MBP-CC1-IH; Theoretical mass 49 kDa; a PreScission-cleavable segment stands between MBP and IH; also called IH-MBP fusion protein; source: E. coli, purified (MBPTrap, Q-Sepharose, Superdex-200)) [MBP-IH fusion protein (MBP-tagged IH, STIM1 residues 310-340)] | 2 | –
wild-type CC1-IH (human STIM1 amino acids 237-340) (domain or fragment, UniProt Q13586 237-340, looked up, Predominantly a dimer and partially a tetramer by AUC; His tag removed with PreScission protease; source: E. coli BL21(DE3) Codon-Plus, purified (Ni-NTA, Q-Sepharose, Superdex-200)) SKEHMKKMMKDLEGLHRAEQSLHDLQERLHKAQEEHRTVEVEKVHLEKKLRDEINLAKQEAQRLKELREGTENERSRQKYAEEELEQVREALRKAEKELESHSS | – | 2 and 4
